Assay [1] concerns the target CD80 (ligand of the blocking assay) (UniProt P33681). As to the kind of experiment: competition, flow cytometry: CD80 on CHO cells expressing CD28. In general terms: Flow cytometry measures light scatter and fluorescence of single cells or particles in a stream.
Assay [2] deals with CD86 labeled with AlexaFluor-647 (UniProt P42081). The assay is described as follows: competition, flow cytometry: labelled CD86 on CHO cells expressing CD28.
The target in assay [3] is human CD28, full-length, on transfected cells (human) (UniProt P10747). The assay is described as follows: flow cytometry on transfected HEK293 cells.
For another assay, the target named is human CD28 (human) (UniProt P10747). As to the kind of experiment: flow cytometry, cells with human CD28; protein from CHO.
The next assay deals with T1, human ICOS (human, UniProt Q9Y6W8 21-199).
T1 construct: whole, on cells
T1 sequence (looked up): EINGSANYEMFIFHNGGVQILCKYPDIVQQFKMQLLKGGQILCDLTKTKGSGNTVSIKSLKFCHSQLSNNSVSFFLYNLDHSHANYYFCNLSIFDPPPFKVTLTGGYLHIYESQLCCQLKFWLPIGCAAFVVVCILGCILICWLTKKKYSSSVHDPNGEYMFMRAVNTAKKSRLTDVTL
The assay is described as follows: flow cytometry, cells with human ICOS; protein from CHO.

For the next assay, the target named is T2, human CTLA-4 (human, UniProt P16410 36-223).
T2 construct: whole, on cells
As to the kind of experiment: flow cytometry, cells with human CTLA-4; protein from CHO.

The source of these data is US20220218785A1 (ALPINE IMMUNE SCIENCES, published 2022).

As usually defined, the IC50 is the concentration that gives 50% inhibition. Read a high IC50 as weaker potency.

T2 sequence (P16410 36-223): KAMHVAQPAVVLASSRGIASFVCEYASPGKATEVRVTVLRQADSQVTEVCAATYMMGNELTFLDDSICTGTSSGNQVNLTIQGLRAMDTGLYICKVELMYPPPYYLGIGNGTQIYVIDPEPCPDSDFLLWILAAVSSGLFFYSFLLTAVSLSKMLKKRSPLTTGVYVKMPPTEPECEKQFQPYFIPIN
Sequence of CD86 labeled with AlexaFluor-647 (P42081 24-247 limits assumed): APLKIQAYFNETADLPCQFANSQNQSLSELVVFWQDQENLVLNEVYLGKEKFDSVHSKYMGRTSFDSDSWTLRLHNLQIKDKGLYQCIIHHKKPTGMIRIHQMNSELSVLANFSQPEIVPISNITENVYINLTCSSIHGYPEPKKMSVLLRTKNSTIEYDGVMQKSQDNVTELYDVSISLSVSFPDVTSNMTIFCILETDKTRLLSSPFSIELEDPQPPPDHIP
Sequence of CD80 (ligand of the blocking assay) (P33681 35-242 limits assumed): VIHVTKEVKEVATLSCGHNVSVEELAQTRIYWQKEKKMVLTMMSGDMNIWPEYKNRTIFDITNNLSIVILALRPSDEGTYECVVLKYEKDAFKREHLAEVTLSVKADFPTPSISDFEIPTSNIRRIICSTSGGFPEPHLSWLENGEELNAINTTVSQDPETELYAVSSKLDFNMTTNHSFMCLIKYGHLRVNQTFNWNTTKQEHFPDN

In the case of belatacept (Fc fusion), the IC50 in assay [1] came to 2.5 nM; in assay [2], 2.8 nM.

Substance “variant ICOSL ECD-Fc M10I, S13G, N52H, N57Y, D77G, V110A, H129P, I143V, F172S, V193M, C198R (Fc fusion)” registered an MFI in assay [3] of 6000 MFI.

For “ICOSL ECD Truncation #8 with N207G/L208G and N52H/N57Y/Q100R/C198R and Y151H (from UniProt O75144 19-224) (Fc fusion)”, the MFI with human CD28 (human) amounted to 94200 MFI; with human ICOS it was 143000 MFI; with human CTLA-4 it was 368000 MFI. Further, the MFI (ΔWT) in the assay with human CD28 (human) worked out at 54.5 fold vs WT; in the assay with human CTLA-4 it was 48.6 fold vs WT.
